Test results reported in patent publication US9549967B2, “Regulation of sodium channels by PLUNC proteins” (The University of North Carolina at Chapel Hill, priority 2009, dated 2017).
“Also recorded” adds a separate entry of the source.

T1: ENaC (Homo sapiens, UniProt P37088+P51168+P51170)
T1 construct: endogenous in cells; host or cells: primary human bronchial epithelial cultures
T1 sequence (P37088 1-669): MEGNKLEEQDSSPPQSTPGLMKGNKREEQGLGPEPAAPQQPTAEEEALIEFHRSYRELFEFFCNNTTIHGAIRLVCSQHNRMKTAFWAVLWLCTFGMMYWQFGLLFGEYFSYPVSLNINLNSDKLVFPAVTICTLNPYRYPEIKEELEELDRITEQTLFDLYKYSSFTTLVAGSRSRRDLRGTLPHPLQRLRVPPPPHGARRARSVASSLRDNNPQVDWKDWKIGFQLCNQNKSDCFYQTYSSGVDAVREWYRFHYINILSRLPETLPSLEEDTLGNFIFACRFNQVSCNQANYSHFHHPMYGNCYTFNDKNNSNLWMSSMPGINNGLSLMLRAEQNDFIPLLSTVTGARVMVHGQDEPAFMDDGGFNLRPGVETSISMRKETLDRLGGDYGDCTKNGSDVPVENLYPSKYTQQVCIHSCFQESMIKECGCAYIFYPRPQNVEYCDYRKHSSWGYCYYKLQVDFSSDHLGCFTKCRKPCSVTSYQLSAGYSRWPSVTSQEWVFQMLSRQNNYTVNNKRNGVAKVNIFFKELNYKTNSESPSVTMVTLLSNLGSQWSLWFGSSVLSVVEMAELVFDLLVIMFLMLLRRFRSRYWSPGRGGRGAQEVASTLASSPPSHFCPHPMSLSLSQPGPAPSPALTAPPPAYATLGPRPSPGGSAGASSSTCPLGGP
T1 sequence (P51168 1-640): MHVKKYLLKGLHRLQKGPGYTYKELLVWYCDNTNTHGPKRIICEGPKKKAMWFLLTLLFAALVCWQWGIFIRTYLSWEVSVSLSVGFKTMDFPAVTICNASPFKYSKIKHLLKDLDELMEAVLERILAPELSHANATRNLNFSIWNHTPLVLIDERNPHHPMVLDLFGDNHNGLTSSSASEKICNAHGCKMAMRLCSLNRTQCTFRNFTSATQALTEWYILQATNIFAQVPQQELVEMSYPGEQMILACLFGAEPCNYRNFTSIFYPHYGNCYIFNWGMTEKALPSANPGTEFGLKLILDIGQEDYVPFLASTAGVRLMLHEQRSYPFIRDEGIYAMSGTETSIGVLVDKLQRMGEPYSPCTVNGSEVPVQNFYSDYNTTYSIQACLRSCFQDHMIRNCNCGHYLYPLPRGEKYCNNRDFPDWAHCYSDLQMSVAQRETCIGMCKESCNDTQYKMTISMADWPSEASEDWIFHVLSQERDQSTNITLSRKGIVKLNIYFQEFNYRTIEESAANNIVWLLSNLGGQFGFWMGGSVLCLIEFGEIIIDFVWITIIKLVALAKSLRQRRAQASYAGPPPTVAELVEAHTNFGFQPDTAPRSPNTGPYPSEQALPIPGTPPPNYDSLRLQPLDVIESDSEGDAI
T1 sequence (P51170 1-649): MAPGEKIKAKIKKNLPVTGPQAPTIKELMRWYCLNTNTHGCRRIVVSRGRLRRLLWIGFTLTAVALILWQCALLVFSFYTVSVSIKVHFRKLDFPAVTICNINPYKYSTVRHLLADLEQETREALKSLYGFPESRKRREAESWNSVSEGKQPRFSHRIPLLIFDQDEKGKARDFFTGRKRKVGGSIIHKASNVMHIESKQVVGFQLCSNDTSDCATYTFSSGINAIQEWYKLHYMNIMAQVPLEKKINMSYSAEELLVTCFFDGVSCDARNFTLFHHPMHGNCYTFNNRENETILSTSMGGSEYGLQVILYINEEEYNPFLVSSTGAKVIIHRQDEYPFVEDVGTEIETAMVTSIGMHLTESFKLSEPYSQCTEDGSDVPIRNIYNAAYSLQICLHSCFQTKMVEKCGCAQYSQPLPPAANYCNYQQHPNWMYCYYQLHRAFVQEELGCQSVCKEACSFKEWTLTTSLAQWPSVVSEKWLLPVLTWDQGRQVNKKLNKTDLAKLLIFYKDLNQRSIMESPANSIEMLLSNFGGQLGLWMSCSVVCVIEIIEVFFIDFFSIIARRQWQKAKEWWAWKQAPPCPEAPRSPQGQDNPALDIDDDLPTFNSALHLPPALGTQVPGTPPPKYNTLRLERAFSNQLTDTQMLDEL

T2: αβγENaC (Rattus norvegicus, UniProt P37089+P37090+P37091)
T2 construct: expressed in transfected cells; host or cells: Xenopus laevis oocytes (cRNA injection)
T2 sequence (P37089 1-698): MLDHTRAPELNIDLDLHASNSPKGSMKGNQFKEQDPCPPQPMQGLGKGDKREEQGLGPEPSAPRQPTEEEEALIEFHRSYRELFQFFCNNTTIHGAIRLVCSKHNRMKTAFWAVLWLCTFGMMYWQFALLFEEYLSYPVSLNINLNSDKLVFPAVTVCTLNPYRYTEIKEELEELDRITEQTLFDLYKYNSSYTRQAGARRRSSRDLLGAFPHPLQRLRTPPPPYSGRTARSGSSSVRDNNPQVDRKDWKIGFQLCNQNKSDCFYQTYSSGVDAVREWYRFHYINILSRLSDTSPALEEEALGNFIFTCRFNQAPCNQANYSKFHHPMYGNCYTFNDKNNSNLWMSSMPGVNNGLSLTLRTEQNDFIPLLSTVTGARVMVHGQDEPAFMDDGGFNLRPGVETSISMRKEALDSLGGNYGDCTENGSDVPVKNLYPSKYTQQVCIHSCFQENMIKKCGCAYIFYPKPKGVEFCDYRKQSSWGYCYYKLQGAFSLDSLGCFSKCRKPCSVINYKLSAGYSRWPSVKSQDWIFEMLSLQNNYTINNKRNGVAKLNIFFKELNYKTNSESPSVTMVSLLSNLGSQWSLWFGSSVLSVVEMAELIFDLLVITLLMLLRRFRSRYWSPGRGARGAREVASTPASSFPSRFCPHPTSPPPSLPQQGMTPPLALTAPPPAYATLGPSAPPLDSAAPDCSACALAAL
T2 sequence (P37090 1-638): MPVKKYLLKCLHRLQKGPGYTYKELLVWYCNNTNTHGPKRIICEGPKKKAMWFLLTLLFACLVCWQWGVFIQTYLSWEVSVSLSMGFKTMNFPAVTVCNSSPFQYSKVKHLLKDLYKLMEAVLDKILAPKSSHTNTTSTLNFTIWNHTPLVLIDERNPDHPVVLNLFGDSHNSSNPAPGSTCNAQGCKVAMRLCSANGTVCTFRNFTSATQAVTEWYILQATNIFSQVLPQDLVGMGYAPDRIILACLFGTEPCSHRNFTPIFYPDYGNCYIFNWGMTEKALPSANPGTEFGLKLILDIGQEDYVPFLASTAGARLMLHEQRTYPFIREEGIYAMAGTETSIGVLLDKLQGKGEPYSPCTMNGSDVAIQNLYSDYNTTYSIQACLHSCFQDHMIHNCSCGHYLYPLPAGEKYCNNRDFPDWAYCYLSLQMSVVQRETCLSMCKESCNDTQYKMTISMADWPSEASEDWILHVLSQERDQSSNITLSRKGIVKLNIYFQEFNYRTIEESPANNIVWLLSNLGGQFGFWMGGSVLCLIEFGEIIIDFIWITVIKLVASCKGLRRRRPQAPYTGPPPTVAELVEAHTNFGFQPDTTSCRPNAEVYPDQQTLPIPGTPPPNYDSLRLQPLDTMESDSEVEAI
T2 sequence (P37091 1-650): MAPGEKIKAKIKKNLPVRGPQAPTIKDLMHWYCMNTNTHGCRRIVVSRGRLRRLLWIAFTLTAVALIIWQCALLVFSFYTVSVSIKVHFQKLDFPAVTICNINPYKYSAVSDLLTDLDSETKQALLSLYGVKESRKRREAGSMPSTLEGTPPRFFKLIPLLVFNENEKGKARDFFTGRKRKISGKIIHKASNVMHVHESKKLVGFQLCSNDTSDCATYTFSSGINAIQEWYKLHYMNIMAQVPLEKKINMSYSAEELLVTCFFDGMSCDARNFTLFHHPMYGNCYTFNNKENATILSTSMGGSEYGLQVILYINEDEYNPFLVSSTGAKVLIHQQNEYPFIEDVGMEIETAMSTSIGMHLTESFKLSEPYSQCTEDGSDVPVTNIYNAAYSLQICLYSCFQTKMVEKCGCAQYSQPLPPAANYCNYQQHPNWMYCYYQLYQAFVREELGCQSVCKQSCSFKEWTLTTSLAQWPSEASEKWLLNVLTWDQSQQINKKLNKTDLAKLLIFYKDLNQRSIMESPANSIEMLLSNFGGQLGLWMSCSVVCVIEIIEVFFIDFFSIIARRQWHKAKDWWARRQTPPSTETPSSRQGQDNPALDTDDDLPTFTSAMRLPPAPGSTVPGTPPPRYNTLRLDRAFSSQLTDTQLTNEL


Legend:
ENaC = biological target: T1, ENaC; assay: Transepithelial voltage under thin film conditions in human bronchial epithelial cultures (microelectrode); type: cell-based; settings: prewashed cultures, PD remeasured 45 min later; DTT-reduced vs 50 ng/ml recombinant SPLUNC1
Description: Tissue procurement and cell culture: Cells were harvested by enzymatic digestion from human bronchial tissue as previously described under a protocol approved by the UNC School of Medicine IRB (Tarran et al., J. Gen. Physiol. 127:591 (2006)). Human excess donor lungs and excised recipient lungs were obtained at the time of lung transplantation from portions of main stem or […] bronchi and cells were harvested by enzymatic digestion. All preparations were maintained at an air-liquid interface in a modified bronchial epithelial medium and used 2-5 weeks after seeding on 12 mm T-Clear inserts (Corning Costar) coated with human placental type VI collagen (Sigma). Phosphate buffered saline (PBS) was used for washing human bronchial epithelial culture mucosal surfaces.
Microelectrode studies. A single-barreled potential difference-sensing electrode was placed in the airway surface liquid by micromanipulator and used in conjunction with a macroelectrode in the serosal solution to measure transepithelial voltage using a voltmeter (World Precision Instruments). […] Transepithelial resistance was routinely measured using the EVOM system (WPI) as previously described (Tarran et al., J. Gen. Physiol. 127:591 (2006)).

αβγENaC = biological target: T2, αβγENaC; assay: Amiloride-sensitive whole cell current in Xenopus laevis oocytes expressing ENaC (two electrode voltage clamp); type: cell-based; settings: co-expression with α,β,γ ENaC in oocytes, FIG. 13
Procedure: Oocyte studies. Xenopus laevis oocytes were harvested and injected as described (Donaldson, et al., J. Biol. Chem. 277:8338 (2002)). Defolliculated healthy stage V-VI oocytes were injected with 0.3 ng of cRNA of each ENaC subunit. Injected oocytes were kept in modified Barth's saline (in mM: 88 NaCl, 1 KCl, 2.4 NaHCO3, 0.3 Ca(NO3)2, 0.41 CaCl2, 0.82 MgSO4, and 15 HEPES, adjusted to pH 7.35 with Tris). Oocytes were studied 24 hr after injection using the two electrode voltage clamp technique as previously described (Donaldson, et al., J. Biol. Chem. 277:8338 (2002)). Oocytes were clamped at a holding potential of […]. The change in amiloride-sensitive whole cell current as an indicator of ENaC activity was determined by subtracting the corresponding current value measured in the presence of 10 μM amiloride from that measured before the application of amiloride.

Row | Molecule | inhibition of the transepithelial PD (SPLUNC1 activity) (ENaC) | reduction of amiloride-sensitive ENaC current relative to CTRL (significance) (αβγENaC)
1 | recombinant SPLUNC1 that had been reduced with DTT: recombinant SPLUNC1 reduced with DTT (protein, UniProt Q9NP55 20-256, looked up, DTT-reduced) BPI fold-containing family A …: QFGGLPVPLDQTLPLNVNPALPLSPTGLAGSLTNALSNGLLSGGLLGILENLPLLDILKPGGGTSGGLLGGLLGKVTSVIPGLNNIIDIKVTDPQLLELGLVQSPDGHRLYVTIPLGIKLQVNTPLVGASLLRLAVKLDITAEILAVRDKQERIHLVLGDCTHSPGSLQISLLDGLGPLPIQGLLDSLTGILNKVLPELVQGNVCPLVNEVLRGLDITLVHDIVNMLIHGLQFVIKV | abolished; also recorded: attenuated | –
2 | SPLUNC2: human SPLUNC2 protein (SEQ ID NO:2), co-expressed in oocytes (protein, listed as Homo sapiens) MLQLWKLVLLCGVLTGTSESLLDNLGNDLSNVVDKLEPVLHEGLETVDNTLKGILEKLKVDLGVLQKSSAWQLAKQKAQEAEKLLNNVISKLLPTNTDIFGLKISNSLILDVKAEPIDDGKGLNLSFPVTANVTVAGPIIGQIINLKASLDLLTAVTIETDPQTHQPVAVLGECASDPTSISLSLLDKHSQIINKFVNSVINTLKSTVSSLLQKEICPLIRIFIHSLDVNVIQQVVDNPQHKTQLQTLI | – | borderline significance
3 | LPLUNC1: long PLUNC family member co-expressed in oocytes (protein) TLSPTAVLILGPKVIKEKLTQELKDHNATSILQQLPLLSAMREKPAGGIPVLGSLVNTVLKHIIWLKVITANILQLQVKPSANDQELLVKIPLDMVAGFNTPLVKTIVEFHMTTEAQATIRMDTSASGPTRLVLSDCATSHGSLRIQLLHKLSFLVNALAKQVMNLLVPSLPNLVKNQLCPVIEASFNGMYADLLQLVKVPISLSIDRLEFDLLYPAIKGDTIQLYLGAKLLDSQGKVTKWFNNSAASLTMPTLDNIPFSLIVSQDVVKAAVAAVLSPEEFMVLLDSVLPESAHRLKSSIGLINEKAADKLGSTQIVKILTQDTPEFFIDQGHAKVAQLIVLEVFPSSEALRPLFTLGIEASSEAQFYTKGDQLILNLNNISSDRIQLMNSGIGWFQPDVLKNIITEIIHSILLPNQNGKLRSGVPVSLVKALGFEAAESSLTKDALVLTPASLWKPSSPVSQ | – | no significant ENaC current reduction
